Measurements reported in the nanobody polyreactivity screen of Harvey et al. (2022).

Assay: yeast display, Sf9 membrane polyspecificity reagent, FACS + sequencing; frameworks hold sequencing errors
Procedure, shortened: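 Using colony PCR, genes from sorted yeast display clones were amplified, then sequenced on MiSeq at 2 × 250 and filtered by CDR length. The clones had been stained with 10% biotinylated, detergent-solubilized Sf9 membrane reagent for 1 hour at 4 °C and sorted by FACS into low and high (top ~1%) gates on anti-HA and streptavidin fluorescence. Polyreactivity labels come from the gate of origin.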

Sequence | polyreactivity (PSR sort gate)
QVQLVESGGGLVKAGGSLLLSCAASGRTIAYNAMGWYRQATGKERELVDAISNSGGRTYYADSVKGRFTISRDNAKNTVYLQMKSLKPEDTAVYYCAAYPVYRSVVSAYGYNYWGQGTQVTVSS | high polyreactivity
QVQLVESGGGLVQAGGSLRLSCAASGITFGSYAMGWYRQAPGKERELVAAISRSGGSTYYADSVKGRFTISRDNAKNTVYLQMNSLKPEDTAVYYCAVRYVYYREGDYWGQGTQVSVSS | high polyreactivity
QVQLVESGGGLVQAGGSLRLSCAASGIIIQINAMGWYRPAPGKERELVAAITIDGTTNYADSVKGRFTISRDNAKNTVYLQMNILKPEDTAVYYCARRRSVYVWEPYQYDYWGQGTQVTVSS | low polyreactivity
QVQLVESGGGLVQAGGSLRLSCAPSGSTFGDNAMGWYRQAPGKERELVAAISSGGGSTYYADSVKGRFTISRDNAKNTVYLQMNSLKPEDTAVYYCAADGTLTLYRYILDYWGQGTQVTVSS | low polyreactivity
QVQLVESGGGLVQAGGSLSLTCAASGSTFPGYPMGWYRQAPGKERELVAAINWRGDSTYYADSVKGRFTISRDNAKNTVYLQMNSLKPEDTAVYYCAAVRGTGTRRYDYWGQGTQVTVSS | high polyreactivity
QVQLVESGGGLVQAGGSLRLSCASSGIIFVYYAMGWYRQAPGKERELVAVITESGVSTYYADSVKGRFTISRDNAKNTVYLQMNSLKPEDTAVYYCNRDYPYIWHKGARYWHENDYWGQGTQVTVSS | low polyreactivity
QVQIVDSGGGLVQAGGSLRLSCAASGSTFKPYAMGWYRQAPGKERELVAAITFSGGSTYYADSVKGRFTISRDNAKNTVYLQMNSLKPEDTAVYDCAARAFKFNGYYYWGQGTQVTVSS | high polyreactivity
QVQLVESGGGLVQARGSLRLSCAASGSTFGWYAMGWYREAPGKERELVAAIYRGGGSTYYADSVKVRFTISRDNAMNTVYLQMNSLKPEDTAVYYCAAYSYYQGGMDYWGEGTQVTVSS | high polyreactivity
QVQLVESGGGLVQAGGSLRLSCAASGSIFGLYAMGWYRQAPGKERELVAAITWSSGNTYYADSVKGRFTISRDNAKNTVYLQMYSLKPEDTAVYYCAATSVSISYRYDYWGQGTQVTVSS | high polyreactivity
QVQLVESGGGLVQAGGTLRLSCAASGRIFFSYAMGWYRQAPGKERELVAAITYSGGSTYYADSVKGRFTISRDNAKNTVYLQKNSLKPEDTAVYYCNAELYEKYDYWGQGTQVTLSS | low polyreactivity
QVQLVESGGGLVQAGGSLRLSCAASGLTFTGYAMGWYRQAPGKERELVASISSRGGSTYYADSVKGRFTISRDNAKITVYLQMNSLKPEDTAVYYCNAVYRGYYSGELDYWGQGTQVTVSS | high polyreactivity
QVQLVESGGGLVQAGGSLRLSCAASGNIFETYAMGWYRQAPGKERELVAVITRGGSTYYADSVKGRFTISRDNAKNTVYLQMNSLKPEDTAVYYCARDAFDDWYGLTDDKSDYWGQGTQVTVSS | low polyreactivity
QVQLVESGGGLVQAGGSLRLSCAASGRTFTYNTMGWYRQAPGKERELVAAISSRGGRTYYADSVKGRFTISRDNAKNTVYLQLNSLKPEDTAVYACAVYGYYALTHWEYDYWGQGTQVTVSS | high polyreactivity
QVQLVESGGGLVQAGGSLRLSCAASGRILGVNAMGGYRQAPGKERELVAAINFSGGGTYYADSVKGRFTISRDNAKNTVYLQMNSLKPEDTAVYYCAAGYVTTWFRYDYWGWGQGTQVTVSS | low polyreactivity
QVQLVESGGGIVQAGGSLRLSCAASGRIFYYNAMGWYRQAPGKERELVAAISTRGTSTYYAESVKGRFTISRDNAKNTVYLQMNSLKPEDTAVYYCNRASGNWQSYLSYDYWGQGTQVTVSS | low polyreactivity
QVQLVESGGGLVQAGGSLRLSCAASGRTFRGYALGWYRQAPGKERELVAAISGGTTNYADSVKGRFTISRDNAKNTVYLQMNSLKPVDTAVYYCAAAQRQYWRYRLGYEYGSWGQGTQVTVSS | low polyreactivity
QVQLVESGGGLVQAGGSLRLSCAASGITFWDYAMGWYRQAPGTERELVAANSRSGGSTYYADSVKGRFTISRDNAKKTVYLQMNSLKPEDTAVYFCAAYTRRPIYDYWGQGTQVTVSS | high polyreactivity
QVQLVESGGGLVQAGGSLRLSCAASGITSRPNAMGWYRQAPGKERELVAAISGSGGRTYYADSVKGRFTISRDNAKNTVYLQMNSLKPEDTAVYYCNAVGGGRWYEYWGLGTQVTVSS | high polyreactivity
QVQLVESGGGLGQAGGSLRLSCAASGSTFQTKAMGWYRQAPGKERELVAAINSGGGTNYADSVKGRFTISRDNAKNTVYLQMNSLKPEDTAVYYCATDVLPRKYVSDYPSGAYDYWGQGTQVTVSS | low polyreactivity
QVQLVESGGGLVQAGGSLRLSCAASGGIFGSYAMGWYRQAPGKERELVAAISGGSTYYADSVKGRFTISRDNAKNTVYLQMNSLKPEDTAVYYCAAGWSVWYQDFDYWGQGTQVTVSS | high polyreactivity
QVQLVESGGCLVQAGGSLRLSCSASGRTFNWKAMGWYRPAPGKERELVAVITSSGTRTYYADSVKGRFTISRDNAKNTVSLQMNSLKPEDTAVYYCANGETYTGPNSRYGQWKKVYYWGQGTQVTVSS | low polyreactivity
QVHLVESGGGLVQAGGSLRLSCAASGGTFRTYAMGWYRQAPGTERELVAAITWRGGSTYYADSVKGRFTISRDNAKNTVYLQMNSLKPEDTAVYYCAARGAYQWSFYKDDYWGQGTQVTVSS | high polyreactivity

Sequence | polyreactivity (PSR sort gate)
QVQLVESGGGLVQAGGSLRLSCAASGRIFARYAMGWYRQAPWKERELVADITTGGSTDYADSVKGRFTISRDNAKNTVYLQMNSLKPEDTAVYYCAKDHHPPGKGQSVSLGYDYWGQGTQVTVSS | low polyreactivity
QVQLVESGGGLVQAGGSLRLSSAATGFTFDKYAMGWYRQAPGKERELVAASSGSGGTTYYADSVKGRFTISRDNAKNTVYLQMNSLKPEDTAVYYCATRLYSIYSYGYWGHGTQVTVSS | high polyreactivity
QVQLVESGGGLVQAGGSLRLSCPASGSIFFYAMGWYRQAPGKERELVADITYTGGSKYADSVKGRFTISRDNAKNTVYLQMNSLKPEDTAFYYCANLDGGLFDYWGQGTQVTVSS | low polyreactivity
QVQLVESGVGLVQAGGSLRLSCAAYGRTFYYYAMGWYRQAPGKERELVAGITWSGGSTKYADSVKGRFTISRDNAKNTVYLQMNSLKPEDTAVYYCNARPPRWVRSMDYWGQGTQVTVSS | high polyreactivity
QVQLVESGAGLVQAGGSLRLSCAASGRIFHFYAMGWYRQAPGKERELVAAITSRTGNTYYADSVKGRFTISRDNAKNTVYLQMNSLKPEDTAVYYCAAKLVNALLHYRNWNHNNYWGQGTQVTVSS | low polyreactivity
QVQLVESGGGLVQAGGSLRLSCAASGITFWNNAMGWYRQAPGKERELVATISSNGGRTYYADSVKGRFTISRDNAKNTVYLQMNSLKPEDTAVYYCNAARRAYGYNYWGQGTQVTVSS | low polyreactivity
QVQLVESGGGLVQEGGSLRLSCAASGSIFAKYAMGWYSQAPGKEREFVAGISYSGNTYYADSVKGRFTISRDNAKNTVYLQMNSLKPEDTAVYYCAADGYLQTRRFDYWGQGTQVTVSS | high polyreactivity
QVQLVESGGGLVQAGGSLRLSCAASGRIFFVNAMGWSRQAPGKERELVAAISRGGSTNYADSVKGRFTISRDNAKNTVYLQMNSLKPEDTAVYYCNADGSSYWYPVPLDGGDYWGQGTQVTVSS | low polyreactivity
QVQLVESGGGLVQAGGSLRLSSAASGRIFKYYVMGWYRQAPGKEREFVAAISGRGGRTYYADSVKGRFTISRDNAKNTVYLQMNSLKPEDTAVYYCATERQDRGPLGYNYWGQGTQVTVSS | high polyreactivity
QVQLVESGGGLVQAGGSLRLSCAASGSIFTFYAMGWYRQAPGKERELVAAISSGGRTYYADSVKGRFTISRDNAKNTVYLQMNSLKPEDTAVYYCAASYQQYFYRYALPADYYYWGQGTQVTVSS | high polyreactivity
QVQLVESGGGLVQAGGSLRLSCAASGRIFVYYAMGWNRQAPGKERELVAAISSSGGSTYYADSVKGRFTISRDNAKNTVYLQMNSLKPEDTAVYYCNAVTSVQARPRNYYYWGQGTQVTVSS | high polyreactivity
QVQLVESGGGLVQAGGSLRLSCAASGNTFGDYAMGWYRQAPGKERELVAAISRSGGSTSYADSVKGRFTISRDNAKNTVYLQMNSLKPEDTAVYYCAAYWQRFGYDYWGQGTQVTVSS | low polyreactivity
QVQLQERGGGQVQAGGSLRLSCAASGTIFLYAFMGWYRQAPGKERELVAAIDVGTTTNYADSVKGRFTISRDNAKNTVYLQMNSLKPEDTAVYYCAANLGYLDDLGYWGQGTQVTVSS | low polyreactivity
QVQLVESGGGLVQAGGSLRLSCAASGRNFFYALGWYRQAPGKERELVASITTSGTSTYYADSVKGRFTISRDNAKNIVYLQMNSLKPEDTAVYYCNATSNSIRWYDLYYWGQGTKVTVSS | low polyreactivity
QVQLVESGGGLVQAGGSLRLSCAASGRIFGGYAMGWYRQAPGKERELVAAISARGGSTYYADSVKGRFTISRDNAKNTVYLQMNSLKPEDTAVYYCAAAEASSRGYYDYDYWGQGTQVTVSS | low polyreactivity
QVQLVESGGGLVQAGGSLRLSCAASGNTFQYYAMGWYRQAPGKEREFVAAISRRGGSTYYADSVKGRFTISRDNAKNTVYLQMNSLKPEDTAVYYCNKVIVLSQSSYSFHYAYDYWGQGTQVTVSS | high polyreactivity
QVQLVESGGGLVQAGGSLRLSCAASGSIFSRYAMGWYRQSPGKERELVAAISQRAGSTYYADSVKGRFTISRDNAKNTVYLQMNSLKPEDTAVYYCAARRRGRKERGEDYWGQGTQVTVSS | high polyreactivity
QVQLVESGGGLVQAGGSLRLSCAASGIIFQGNAMGWYRQAPGKERELVAAISSGGSTYYADSVKGRFTISRDNAKNTVYLQMNSLKPEDTAVYYCNAGAYVRYDYWGQGTQVTVSS | low polyreactivity
QVQLVESGGGLVQAGGSLPLSCAASGSILYFYAMGWYRQSPGKERELVAAISWTGGSTYYADSVKGRFTISRDNAKNTVYLQMNSLKPEDTAVYYCAAELWYEGYDYWGQGTQVTVSS | high polyreactivity
QVQLVESGGGLVQAGGSLRLSCAASGSTFPGNAMGWYRQAPGNERELVAAIRWSGGRTYYADSVKGRFTISRDNAKNTVYLQMNSLKPEDTAVYYCAARLRKHGYGYWGQGTQVTVSS | low polyreactivity
QVQLVESGGGLVQAGGSLRLSCAASGRIFSYNAMGWYRQAPGKERELVAGITSGGRTYYADSVKGRFTISRDNAKNTVYLQMNSLKPEDTAVHYCAASYVPARTRYYYWGQGTQVTVSS | high polyreactivity
